From patent US20200392198A1 (UNIVERSITY OF COPENHAGEN, published 2020) come the findings set out here.

The target of assay [1] is T1, human GIP receptor (human, UniProt P48546 22-466).
T1 sequence (looked up): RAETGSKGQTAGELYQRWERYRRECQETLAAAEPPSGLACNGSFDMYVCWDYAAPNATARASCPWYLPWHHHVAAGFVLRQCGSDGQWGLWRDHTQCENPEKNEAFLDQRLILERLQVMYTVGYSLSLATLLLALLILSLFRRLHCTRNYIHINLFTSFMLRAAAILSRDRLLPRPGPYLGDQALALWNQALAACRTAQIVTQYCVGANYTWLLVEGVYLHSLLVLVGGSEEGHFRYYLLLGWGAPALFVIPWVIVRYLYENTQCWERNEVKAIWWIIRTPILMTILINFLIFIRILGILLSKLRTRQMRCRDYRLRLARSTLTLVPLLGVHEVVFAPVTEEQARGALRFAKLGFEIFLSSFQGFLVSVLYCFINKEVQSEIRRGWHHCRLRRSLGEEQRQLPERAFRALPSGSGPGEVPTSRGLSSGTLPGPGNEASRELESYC
Briefly: cell-based or functional assay.

Assay [2] addresses T2, human GLP-2 receptor (human, UniProt O95838 1-553).
T2 sequence (looked up): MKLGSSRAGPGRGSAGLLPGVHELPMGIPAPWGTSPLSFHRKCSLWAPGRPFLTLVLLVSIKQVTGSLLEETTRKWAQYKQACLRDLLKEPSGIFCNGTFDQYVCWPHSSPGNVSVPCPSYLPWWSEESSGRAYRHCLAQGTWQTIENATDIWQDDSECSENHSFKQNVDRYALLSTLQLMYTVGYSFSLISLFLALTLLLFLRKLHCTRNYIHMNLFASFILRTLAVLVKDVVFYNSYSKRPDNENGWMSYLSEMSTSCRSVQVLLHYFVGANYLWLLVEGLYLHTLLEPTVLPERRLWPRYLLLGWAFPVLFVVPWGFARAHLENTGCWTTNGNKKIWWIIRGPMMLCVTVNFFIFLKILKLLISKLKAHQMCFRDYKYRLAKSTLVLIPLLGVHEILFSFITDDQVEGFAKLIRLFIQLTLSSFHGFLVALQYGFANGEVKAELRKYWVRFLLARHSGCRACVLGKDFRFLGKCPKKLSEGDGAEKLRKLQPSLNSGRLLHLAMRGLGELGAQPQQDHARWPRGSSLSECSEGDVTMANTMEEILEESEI
Kind of assay: cell-based or functional assay.

Consider HAEGTFISDYSTILDNLAARDFVNWLLAQKITD [GIP-GLP-2 co-agonist 9], for which, in assay [1], the “EC50 (cAMP)” value was 3.2 nM; the “Emax (10 µM), % of native GIP” value was 100%; the “fold (EC50 vs native GIP)” value came to 36 fold; the “logEC50 (cAMP)” value is -8.5. For the same molecule, in assay [2], the “EC50 (cAMP)” value turned out to be 123 nM; the “Emax (10 µM), % of native GLP-2” value was 67%; the “fold (EC50 vs native GLP-2)” value was found to be 103 fold; the “logEC50 (cAMP)” value is -6.91.
As for HAEGTFISDYSTILDNIHQQDFINWLIQTKITD [GIP-GLP-2 co-agonist 8], in assay [1], the “EC50 (cAMP)” value turned out to be 5.9 nM; the “Emax (10 µM), % of native GIP” value is 100%; the “fold (EC50 vs native GIP)” value was 66 fold; the “logEC50 (cAMP)” value was -8.23. In addition, in assay [2], the “Emax (10 µM), % of native GLP-2” value amounted to 22% and the “logEC50 (cAMP)” value was greater than -5.
With HAEGTFISDYSTILDNLAARDFINWLIQTKGKK [GIP-GLP-2 co-agonist 10], in assay [1], the “EC50 (cAMP)” value turned out to be 5.4 nM; the “Emax (10 µM), % of native GIP” value turned out to be 100%; the “fold (EC50 vs native GIP)” value turned out to be 61 fold; the “logEC50 (cAMP)” value is -8.27. In assay [2], the “EC50 (cAMP)” value amounted to 22 nM; the “Emax (10 µM), % of native GLP-2” value stood at 77%; the “fold (EC50 vs native GLP-2)” value was determined as 18 fold; the “logEC50 (cAMP)” value was -7.66.
Consider HAEGTFISDYSTILDNLAARDFINWLIQTKITDNDWKHNITQ [GIP-GLP-2 co-agonist 2], for which, in assay [1], the “EC50 (cAMP)” value was determined as 12 nM; the “Emax (1 µM), % of native GIP” value stood at 100%; the “fold (EC50 vs native GIP)” value is 135 fold; the “logEC50 (cAMP)” value was -7.92. Moreover, in assay [2], the “EC50 (cAMP)” value was found to be 145 nM; the “Emax (1 µM), % of native GLP-2” value was 93%; the “fold (EC50 vs native GLP-2)” value was 121 fold; the “logEC50 (cAMP)” value was -6.84.
Consider HVDGTFISDYSTILDNLAARDFINWLIQTKITD [GIP-GLP-2 co-agonist 12], for which, in assay [1], the “EC50 (cAMP)” value was determined as 1.1 nM; the “Emax (10 µM), % of native GIP” value worked out at 96%; the “fold (EC50 vs native GIP)” value was 12 fold; the “logEC50 (cAMP)” value was -8.96. Besides, in assay [2], the “EC50 (cAMP)” value was 25 nM; the “Emax (10 µM), % of native GLP-2” value worked out at 81%; the “fold (EC50 vs native GLP-2)” value came to 21 fold; the “logEC50 (cAMP)” value was -7.6.
HADGTFISDYSTILDNLAARDFINWLIQTKGTD [GIP-GLP-2 co-agonist 16]: in assay [1], the “EC50 (cAMP)” value was found to be 0.6 nM; the “Emax (10 µM), % of native GIP” value turned out to be 95%; the “fold (EC50 vs native GIP)” value is 6.7 fold; the “logEC50 (cAMP)” value was -9.22. In addition, in assay [2], the “EC50 (cAMP)” value amounted to 82 nM; the “Emax (10 µM), % of native GLP-2” value stood at 74%; the “fold (EC50 vs native GLP-2)” value is 68 fold; the “logEC50 (cAMP)” value is -7.06.
With HADGTFISDYSTILDNLAARDFINWLIQTKGKK [GIP-GLP-2 co-agonist 19], in assay [1], the “EC50 (cAMP)” value amounted to 0.25 nM; the “Emax (10 µM), % of native GIP” value was 93%; the “logEC50 (cAMP)” value is -9.6. Besides, the “Emax (10 µM), % of native GLP-2” value in assay [2] was found to be 91%.
With HADGTFISDYSTILDNLAARDFINWLIQTKIKD [GIP-GLP-2 co-agonist 17], in assay [1], the “EC50 (cAMP)” value was 0.4 nM; the “Emax (10 µM), % of native GIP” value worked out at 95%; the “fold (EC50 vs native GIP)” value is 4.5 fold; the “logEC50 (cAMP)” value is -9.39. In addition, in assay [2], the “EC50 (cAMP)” value stood at 25 nM; the “Emax (10 µM), % of native GLP-2” value stood at 88%; the “fold (EC50 vs native GLP-2)” value was determined as 21 fold; the “logEC50 (cAMP)” value was -7.61.
With HAEGTFISDYSTILDNLAARDFINWLIQTKITD [GIP-GLP-2 co-agonist 1], in assay [1], the “EC50 (cAMP)” value came to 30 nM; the “Emax (1 µM), % of native GIP” value stood at 100%; the “fold (EC50 vs native GIP)” value was 337 fold; the “logEC50 (cAMP)” value is -7.53. Further, in assay [2], the “EC50 (cAMP)” value turned out to be 98 nM; the “Emax (1 µM), % of native GLP-2” value was determined as 93%; the “fold (EC50 vs native GLP-2)” value is 82 fold; the “logEC50 (cAMP)” value was -7.01.
In the case of HADGTFIDDYSTILDNLAARDFINWLIQTKITD [GIP-GLP-2 co-agonist 14], in assay [1], the “EC50 (cAMP)” value worked out at 2.4 nM; the “Emax (10 µM), % of native GIP” value turned out to be 94%; the “fold (EC50 vs native GIP)” value was 27 fold; the “logEC50 (cAMP)” value was -8.63. In assay [2], the “EC50 (cAMP)” value came to 11 nM; the “Emax (10 µM), % of native GLP-2” value worked out at 90%; the “fold (EC50 vs native GLP-2)” value was 9.2 fold; the “logEC50 (cAMP)” value is -7.97.
As for HADGTFISDYSTILDNLAARDFINWLIQTKITK [GIP-GLP-2 co-agonist 18], in assay [1], the “EC50 (cAMP)” value is 0.66 nM; the “Emax (10 µM), % of native GIP” value was found to be 89%; the “fold (EC50 vs native GIP)” value is 7.4 fold; the “logEC50 (cAMP)” value was -9.18. In addition, in assay [2], the “EC50 (cAMP)” value was found to be 5.3 nM; the “Emax (10 µM), % of native GLP-2” value amounted to 94%; the “fold (EC50 vs native GLP-2)” value worked out at 4.4 fold; the “logEC50 (cAMP)” value is -8.28.
As for HADGTFISDYSTILDNLAARDFINWLIQTKITD [GIP-GLP-2 co-agonist 3], in assay [1], the “EC50 (cAMP)” value was 0.11 nM; the “Emax (10 µM), % of native GIP” value was 100%; the “fold (EC50 vs native GIP)” value stood at 1.2 fold; the “logEC50 (cAMP)” value was -9.97. In addition, in assay [2], the “EC50 (cAMP)” value is 21 nM; the “Emax (10 µM), % of native GLP-2” value turned out to be 100%; the “fold (EC50 vs native GLP-2)” value came out at 18 fold; the “logEC50 (cAMP)” value was -7.67.
HADGTFISEYSTILDNLAARDFINWLIQTKITD [GIP-GLP-2 co-agonist 15]: in assay [1], the “EC50 (cAMP)” value was found to be 3.2 nM; the “Emax (10 µM), % of native GIP” value stood at 92%; the “fold (EC50 vs native GIP)” value stood at 36 fold; the “logEC50 (cAMP)” value was -8.5. In assay [2], the “EC50 (cAMP)” value came out at 6.7 nM; the “Emax (10 µM), % of native GLP-2” value was found to be 104%; the “fold (EC50 vs native GLP-2)” value is 5.6 fold; the “logEC50 (cAMP)” value is -8.18.
As for HADGTFSSDYSTILDNLAARDFINWLIQTKITD [GIP-GLP-2 co-agonist 13], in assay [1], the “EC50 (cAMP)” value is 12 nM; the “Emax (10 µM), % of native GIP” value stood at 91%; the “fold (EC50 vs native GIP)” value was determined as 135 fold; the “logEC50 (cAMP)” value is -7.92. Besides, in assay [2], the “EC50 (cAMP)” value stood at 11 nM; the “Emax (10 µM), % of native GLP-2” value was determined as 99%; the “fold (EC50 vs native GLP-2)” value was 9.2 fold; the “logEC50 (cAMP)” value is -7.95.
For HAEGTFISDMNTILDNLAARDFINWLIQTKITD [GIP-GLP-2 co-agonist 6], in assay [1], the “EC50 (cAMP)” value is 172 nM; the “Emax (10 µM), % of native GIP” value worked out at 83%; the “fold (EC50 vs native GIP)” value turned out to be 1930 fold; the “logEC50 (cAMP)” value is -6.77. Further, in assay [2], the “EC50 (cAMP)” value came out at 60 nM; the “Emax (10 µM), % of native GLP-2” value is 70%; the “fold (EC50 vs native GLP-2)” value came to 50 fold; the “logEC50 (cAMP)” value was -7.22.
As for HAEGSFISDYSTILDNLAARDFINWLIQTKITD [GIP-GLP-2 co-agonist 4], in assay [1], the “EC50 (cAMP)” value was 38 nM; the “Emax (10 µM), % of native GIP” value stood at 83%; the “fold (EC50 vs native GIP)” value came to 427 fold; the “logEC50 (cAMP)” value is -7.42. In addition, in assay [2], the “EC50 (cAMP)” value came out at 25 nM; the “Emax (10 µM), % of native GLP-2” value was determined as 90%; the “fold (EC50 vs native GLP-2)” value was 21 fold; the “logEC50 (cAMP)” value was -7.59.
As to HAEGTFSDEYSTILDNLAARDFINWLIQTKITD [GIP-GLP-2 co-agonist 5], in assay [1], the “EC50 (cAMP)” value was 456 nM; the “Emax (10 µM), % of native GIP” value amounted to 75%; the “fold (EC50 vs native GIP)” value is 5120 fold; the “logEC50 (cAMP)” value is -6.34. Moreover, in assay [2], the “EC50 (cAMP)” value came out at 6.2 nM; the “Emax (10 µM), % of native GLP-2” value amounted to 91%; the “fold (EC50 vs native GLP-2)” value worked out at 5.2 fold; the “logEC50 (cAMP)” value was -8.21.
In the case of HAEGTFISDYSIAMDKLAARDFINWLIQTKITD [GIP-GLP-2 co-agonist 7], in assay [1], the “EC50 (cAMP)” value amounted to 26 nM; the “Emax (10 µM), % of native GIP” value was 92%; the “fold (EC50 vs native GIP)” value is 292 fold; the “logEC50 (cAMP)” value was -7.59. Besides, in assay [2], the “EC50 (cAMP)” value worked out at 351 nM; the “Emax (10 µM), % of native GLP-2” value was determined as 78%; the “fold (EC50 vs native GLP-2)” value is 293 fold; the “logEC50 (cAMP)” value is -6.45.
